Patent US20070243194A1 (Biogen, published 2007)

B1: M13-C06.G4.P.agly (antibody, human IgG4 S228P, kappa, V domains shown)
VH: EVQLLESGGGLVQPGGSLRLSCAASGFTFSIYRMQWVRQAPGKGLEWVSGISPSGGTTWYADSVKGRFTISRDNSKNTLYLQMNSLRAEDTAVYYCARWSGGSGYAFDIWGQGTMVTVSS
VL: DIQMTQSPLSLSASVGDRVTITCQASRDIRNYLNWYQQKPGKAPKLLIYDASSLQTGVPSRFGGSGSGTDFSFTIGSLQPEDIATYYCQQFDSLPHTFGQGTKLEIKR
B2: M14-C03.G4.P.agly (antibody, human IgG4 S228P, kappa, V domains shown)
VH: EVQLLESGGGLVQPGGSLRLSCAASGFTFSKYMMSWVRQAPGKGLEWVSYISPSGGLTWYADSVKGRFTISRDNSKNTLYLQMNSLRAEDTAVYYCARDGARGYGMDVWGQGTTVTVSS
VL: DIQMTQSPATLSLSPGERATLSCRASQSVSSYLAWYQQKPGQAPRLLIYDASNRATGIPARFSGSGSGTDFTLTISSLEPEDFAVYYCQQRSNWPPEVTFGPGTKVDIKR
B3: M14-G11.G4.P (antibody, V domains shown)
VH: EVQLLESGGGLVQPGGSLRLSCAASGFTFSNYPMYWVRQAPGKGLEWVSRISSSGGRTVYADSVKGRFTISRDNSKNTLYLQMNSLRAEDTAVYYCARDRWSRSAAEYGLGGYWGQGTLVTVSS
VL: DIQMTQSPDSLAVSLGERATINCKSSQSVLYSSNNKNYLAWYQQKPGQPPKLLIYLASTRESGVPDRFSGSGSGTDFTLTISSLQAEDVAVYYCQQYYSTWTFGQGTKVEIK

Biological target: human IGF-1R on cells (human, UniProt P08069 31-740; P08069 741-1367)
Assay: cell-based or functional assay

Chain of human IGF-1R on cells (P08069 31-740, chain 1 of 2): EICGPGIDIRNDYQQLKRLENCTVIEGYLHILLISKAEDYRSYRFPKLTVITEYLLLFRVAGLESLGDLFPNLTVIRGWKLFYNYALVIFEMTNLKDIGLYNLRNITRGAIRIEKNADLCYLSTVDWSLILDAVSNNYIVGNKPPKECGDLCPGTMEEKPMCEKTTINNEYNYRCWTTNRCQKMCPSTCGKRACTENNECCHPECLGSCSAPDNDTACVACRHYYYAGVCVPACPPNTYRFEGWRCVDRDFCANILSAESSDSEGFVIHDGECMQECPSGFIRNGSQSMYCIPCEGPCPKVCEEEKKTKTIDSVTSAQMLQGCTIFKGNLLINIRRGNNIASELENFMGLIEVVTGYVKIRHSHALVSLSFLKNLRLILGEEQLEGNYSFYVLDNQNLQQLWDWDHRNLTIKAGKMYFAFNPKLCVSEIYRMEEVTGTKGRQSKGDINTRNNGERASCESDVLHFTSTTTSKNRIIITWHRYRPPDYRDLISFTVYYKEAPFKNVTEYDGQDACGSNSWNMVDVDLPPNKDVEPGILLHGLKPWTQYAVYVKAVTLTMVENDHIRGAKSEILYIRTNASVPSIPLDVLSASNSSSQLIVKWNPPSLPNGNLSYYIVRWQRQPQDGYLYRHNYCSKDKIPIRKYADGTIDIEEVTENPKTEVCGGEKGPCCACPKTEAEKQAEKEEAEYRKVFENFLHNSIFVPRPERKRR
Chain of human IGF-1R on cells (P08069 741-1367, chain 2 of 2): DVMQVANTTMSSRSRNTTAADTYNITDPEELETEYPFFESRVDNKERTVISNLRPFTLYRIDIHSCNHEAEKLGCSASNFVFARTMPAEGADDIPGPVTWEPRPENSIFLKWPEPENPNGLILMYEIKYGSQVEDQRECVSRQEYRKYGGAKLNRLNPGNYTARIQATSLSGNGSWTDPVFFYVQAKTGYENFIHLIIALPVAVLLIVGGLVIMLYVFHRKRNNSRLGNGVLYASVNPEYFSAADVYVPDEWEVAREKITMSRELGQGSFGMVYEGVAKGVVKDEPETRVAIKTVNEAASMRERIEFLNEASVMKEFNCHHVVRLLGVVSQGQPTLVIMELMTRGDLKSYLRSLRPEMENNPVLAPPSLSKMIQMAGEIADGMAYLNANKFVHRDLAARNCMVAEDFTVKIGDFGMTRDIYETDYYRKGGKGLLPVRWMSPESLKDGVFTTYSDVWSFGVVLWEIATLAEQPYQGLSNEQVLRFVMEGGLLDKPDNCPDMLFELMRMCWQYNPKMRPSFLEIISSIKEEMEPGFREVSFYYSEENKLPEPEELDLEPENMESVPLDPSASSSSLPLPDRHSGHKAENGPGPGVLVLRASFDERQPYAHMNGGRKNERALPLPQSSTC

Binder	inhibition of IGF-1 and IGF-2 mediated IGF-1R receptor phosphorylation, EC50 [nM]
B1	< 1
B2	< 1
B3	< 1
